# B1: Bat SARS-like coronavirus WIV1 spike protein ectodomain (domain or fragment)
# chain: not shown
# notes: also called bCoV-WIV1; bat SL-CoV WIV1
# Biological target: the molecule itself
# Assay: cryo-EM structure
protein,measurement,value
B1,stoichiometry N,3
